# Experimental data as given in PMC5414174, “DNA replication licensing factor Cdc6 and Plk4 kinase antagonistically regulate centrosome duplication via Sas-6” (Nature Communications, 2017).
# B1: GFP-tagged Cdc6 WT [human] / Myc-tagged Sas-6 [human] (parent)
# chain 1: MPQTRSQAQATISFPKRKLSRALNKAKNSSDAKLEPTNVQTVTCSPRVKALPLSPRKRLGDDNLCNTPHLPPCSPPKQGKKENGPPHSHTLKGRRLVFDNQLTIKSPSKRELAKVHQNKILSSVRKSQEITTNSEQRCPLKKESACVRLFKQEGTCYQQAKLVLNTAVPDRLPAREREMDVIRNFLREHICGKKAGSLYLSGAPGTGKTACLSRILQDLKKELKGFKTIMLNCMSLRTAQAVFPAIAQEICQEEVSRPAGKDMMRKLEKHMTAEKGPMIVLVLDEMDQLDSKGQDVLYTLFEWPWLSNSHLVLIGIANTLDLTDRILPRLQAREKCKPQLLNFPPYTRNQIVTILQDRLNQVSRDQVLDNAAVQFCARKVSAVSGDVRKALDVCRRAIEIVESDVKSQTILKPLSECKSPSEPLIPKRVGLIHISQVISEVDGNRMTLSQEGAQDSFPLQQKILVCSLMLLIRQLKIKEVTLGKLYEAYSKVCRKQQVAAVDQSECLSLSGLLEARGILGLKRNKETRLTKVFFKIEEKEIEHALKDKALIGNILATGLP
# chain 2: MSQVLFHQLVPLQVKCKDCEERRVSIRMSIELQSVSNPVHRKDLVIRLTDDTDPFFLYNLVISEEDFQSLKFQQGLLVDFLAFPQKFIDLLQQCTQEHAKEIPRFLLQLVSPAAILDNSPAFLNVVETNPFKHLTHLSLKLLPGNDVEIKKFLAGCLKCSKEEKLSLMQSLDDATKQLDFTRKTLAEKKQELDKLRNEWASHTAALTNKHSQELTNEKEKALQAQVQYQQQHEQQKKDLEILHQQNIHQLQNRLSELEAANKDLTERKYKGDSTIRELKAKLSGVEEELQRTKQEVLSLRRENSTLDVECHEKEKHVNQLQTKVAVLEQEIKDKDQLVLRTKEAFDTIQEQKVVLEENGEKNQVQLGKLEATIKSLSAELLKANEIIKKLQGDLKTLMGKLKLKNTVTIQQEKLLAEKEEKLQKEQKELQDVGQSLRIKEQEVCKLQEQLEATVKKLEESKQLLKNNEKLITWLNKELNENQLVRKQDVLGPSTTPPAHSSSNTIRSGISPNLNVVDGRLTYPTCGIGYPVSSAFAFQNTFPHSISAKNTSHPGSGTKVQFNLQFTKPNASLGDVQSGATISMPCSTDKENGENVGLESKYLKKREDSIPLRGLSQNLFSNSDHQRDGTLGALHTSSKPTALPSASSAYFPGQLPNS
# Variants of: B1
# Test: co-immunoprecipitation (anti-GFP IP, western blot quantified by ImageJ)
# Conditions: with Myc-tagged Sas-6 [human]; HEK293 cells co-transfected; three independent experiments; means ± s.d.; read off a plot
row,Variant,ratio to parent
1,chain 1 S30A T527A,1.7
2,chain 1 S30D T527D,0.42
